Source: PMC4911631

Columns and labels:
[1] = target: PRX1, recombinant (Chlamydomonas reinhardtii)
[2] = target: PRX1, recombinant (Chlamydomonas reinhardtii); remark: listed apart in the source

Substance | reduction of PRX1 by CRX (NADPH oxidation) without Ca2+ (EGTA added) against with Ca2+ [1] [fold] | maximal electron transfer rate to PRX1 at saturating Ca2+ against WT CRX (Supplementary Fig. 1b) [2] [fold]
calredoxin (CRX), wild type, recombinant (enzyme) | 10 | –
calredoxin (CRX) Lys263Ile, recombinant (enzyme) | – | 3
